Reference: USRE48137E1, “Multivalent vaccine protection from Staphylococcus aureus infection” (UNIVERSITY OF MARYLAND, BALTIMORE, priority 2012, dated 2020)

Test system: S. aureus MRSA-M2
Experiment: murine tibial implant model of S. aureus infection
Assay type: in vivo
Settings: C57BL/6 mice, tibiae CFU at 21 days post-challenge; 12.5 μg per antigen IP at 28 and 14 days prior to challenge
Text: Mice. Inbred C57BL/6 (6-8 weeks old) were purchased from Jackson Laboratories (Bar Harbor, Me.). Mice were maintained under micro-isolator conditions in the animal facility at the University of Maryland Dental School (Baltimore, Md.), in accordance with protocols reviewed and approved by the Institutional Animal Care and Use Committee (IACUC).
Bacterial strain and preparation of infectious inocula. […] Cells were centrifuged, rinsed with PBS, counted via a Petroff Hausser counter, and diluted to 1×10^6 CFU/ml. […]
Bone Cultures. […] In addition, non-vaccinated mice (alum alone) and mice vaccinated with the quadrivalent vaccine, the single additional antigen SA0119, or all antigens combined were euthanized at 21 days post infection and tibial colony-forming units (CFUs) were determined as described above. Dissemination of the S. aureus infection was monitored by homogenizing kidneys and plating the homogenates as described above.
Statistical Analysis. Mean and SD were calculated and analyzed using Student's t-test with a P value of <0.05 to determine statistical significance. Experiments determining the percentage of mice still infected after vancomycin or PBS treatment were analyzed using Fishers Exact test with a p value of <0.05 for statistical significance. […]

B1: SACOL0119 vaccine: planktonic-specific monovalent vaccine; S. aureus polypeptide SA0119, SEQ ID NO:14 (protein, listed as Staphylococcus aureus)
chain: MKKLATVGSLIVTSTLVFSSMPFQNAHADTTSMNVPNKQSQNVQNHRPYGGVVPQGMTQAQYTELEKTLPQLSAGSNMQDYNMKLYDATQNIADKYNVIITTNVGVFKPHAVRDMNGHALPLTKDGNFYQTNVDANGVNHGGSEMVQNKTGHMSQQDHMNQNTHMNQQPQIQQGHMQSSNHQMMSPKANMHSSNHQMNQSNKKVLPAAGESMTSSILTASIAALLLVSGLFLAFRRRSTNK
bacterial clearance (percent of animals cleared of S. aureus): 40%
